Data as given in patent publication US12351616B2, “Peptides and combination of peptides for use in immunotherapy against esophageal cancer and other cancers” (Immatics Biotechnologies GmbH, priority 2015, dated 2025).

target: HLA-A*02:01 (Homo sapiens, UniProt P04439, D140Y/D185E/D98H/E176V/E277Q/G131W/G231S/I119V/I121R/I166T/I218V/L300P/L318F/N151K/N90K/P208A/P217A/Q86G/Q94H/R138H/R169H/T345S); assay: MHC binding assay: UV-ligand exchange with β2m ELISA; conditions: peptide exchange yield, binding to HLA-A*02:01
Text: Candidate peptides for T cell based therapies according to the present invention were further tested for their MHC binding capacity (affinity). The individual peptide-MHC complexes were produced by UV-ligand exchange, where a UV-sensitive peptide is cleaved upon UV-irradiation, and exchanged with the peptide of interest as analyzed. Only peptide candidates that can effectively bind and stabilize the peptide-receptive MHC molecules prevent dissociation of the MHC complexes. To determine the yield of the exchange reaction, an ELISA was performed based on the detection of the light chain (β2m) of stabilized MHC complexes. The assay was performed as generally described in Rodenko et al. (Rodenko et al., 2006).
96 well MAXISorp plates (NUNC) were coated over night with 2 ug/ml streptavidin in PBS at room temperature, washed 4× and blocked for 1 h at 37° C. in 2% BSA containing blocking buffer. Refolded HLA-A*02:01/MLA-001 monomers served as standards, covering the range of 15-500 ng/ml. Peptide-MHC monomers of the UV-exchange reaction were diluted 100 fold in blocking buffer. Samples were incubated for 1 h at 37° C., washed four times, incubated with 2 ug/ml HRP conjugated anti-β2m for 1 h at 37° C., washed again and detected with TMB solution that is stopped with […]. Absorption was measured at 450 nm. Candidate peptides that show a high exchange yield (preferably higher than 50%, most preferred higher than 75%) are generally preferred for a generation and production of antibodies or fragments thereof, and/or T cell receptors or fragments thereof, as they show sufficient avidity to the MHC molecules and prevent dissociation of the MHC complexes.

| Substance | Peptide exchange |
| --- | --- |
| 53 (VVVTGLTLV; listed as Homo sapiens) [compound 53] | ++ (≥20% = ++) |
| 44 (ATGNDRKEAAENSL; listed as Homo sapiens) [compound 44] | +++ (≥50 = +++) |
| 34 (SLVSEQLEPA; listed as Homo sapiens) [compound 34] | +++ (≥50 = +++) |
| 39 (LVRDTQSGSL; listed as Homo sapiens) [compound 39] | ++ (≥20% = ++) |
| 58 (LILESIPVV; listed as Homo sapiens) [compound 58] | ++ (≥20% = ++) |
| 93 (VLINTSVTL; listed as Homo sapiens) [compound 93] | +++ (≥50 = +++) |
| 62 (ALYEYQPLQI; listed as Homo sapiens) [compound 62] | ++ (≥20% = ++) |
| 55 (GAIDLLHNV; listed as Homo sapiens) [compound 55] | ++ (≥20% = ++) |
| 26 (MLAEKLLQA; listed as Homo sapiens) [compound 26] | + (≥10% = +) |
| 30 (SLNGNQVTV; listed as Homo sapiens) [compound 30] | + (≥10% = +) |
| 14 (RLPNAGTQV; listed as Homo sapiens) [compound 14] | ++++ (≥75% = ++++) |
| 54 (YQDLLNVKM; listed as Homo sapiens) [compound 54] | +++ (≥50 = +++) |
| 13 (SLSPVILGV; listed as Homo sapiens) [compound 13] | ++++ (≥75% = ++++) |
| 16 (VLAEGGEGV; listed as Homo sapiens) [compound 16] | +++ (≥50 = +++) |
| 83 (ALADGVVSQA; listed as Homo sapiens) [compound 83] | +++ (≥50 = +++) |
| 25 (LLPPPPPPA; listed as Homo sapiens) [compound 25] | +++ (≥50 = +++) |
| 67 (SMNGGVFAV; listed as Homo sapiens) [compound 67] | ++ (≥20% = ++) |
| 3 (TASAITPSV; listed as Homo sapiens) [compound 3] | +++ (≥50 = +++) |

| Substance | Peptide exchange |
| --- | --- |
| 70 (FVLDTSESV; listed as Homo sapiens) [compound 70] | +++ (≥50 = +++) |
| 37 (YTQPFSHYGQAL; listed as Homo sapiens) [compound 37] | +++ (≥50 = +++) |
| 90 (SIYEYYHAL; listed as Homo sapiens) [compound 90] | +++ (≥50 = +++) |
| 43 (KVVGKDYLL; listed as Homo sapiens) [compound 43] | + (≥10% = +) |
| 21 (IVREFLTAL; listed as Homo sapiens) [compound 21] | +++ (≥50 = +++) |
| 45 (MLTELEKAL; listed as Homo sapiens) [compound 45] | ++ (≥20% = ++) |
| 23 (KLSDSATYL; listed as Homo sapiens) [compound 23] | +++ (≥50 = +++) |
| 82 (HLLGHLEQA; listed as Homo sapiens) [compound 82] | +++ (≥50 = +++) |
| 91 (KLIDDVHRL; listed as Homo sapiens) [compound 91] | ++++ (≥75% = ++++) |
| 36 (FLLRFSQDNA; listed as Homo sapiens) [compound 36] | ++ (≥20% = ++) |
| 24 (LLFAGTMTV; listed as Homo sapiens) [compound 24] | ++ (≥20% = ++) |
| 85 (NIIELVHQV; listed as Homo sapiens) [compound 85] | ++++ (≥75% = ++++) |
| 32 (YMLDIFHEV; listed as Homo sapiens) [compound 32] | ++ (≥20% = ++) |
| 72 (FLPPAQVTV; listed as Homo sapiens) [compound 72] | ++ (≥20% = ++) |
| 18 (FLLDQVQLGL; listed as Homo sapiens) [compound 18] | +++ (≥50 = +++) |
| 10 (SLDENSDQQV; listed as Homo sapiens) [compound 10] | +++ (≥50 = +++) |
| 22 (KLNDTYVNV; listed as Homo sapiens) [compound 22] | +++ (≥50 = +++) |
| 57 (GLAPNTPGKA; listed as Homo sapiens) [compound 57] | +++ (≥50 = +++) |

Continued, values first:

| Peptide exchange | Substance |
| --- | --- |
| ++ (≥20% = ++) | 80 (ALQEALENA; listed as Homo sapiens) [compound 80] |
| +++ (≥50 = +++) | 9 (HLIAEIHTA; listed as Homo sapiens) [compound 9] |
| ++ (≥20% = ++) | 52 (VAIGGVDGNVRL; listed as Homo sapiens) [compound 52] |
| +++ (≥50 = +++) | 27 (NLREGDQLL; listed as Homo sapiens) [compound 27] |
| +++ (≥50 = +++) | 71 (ASDPILYRPVAV; listed as Homo sapiens) [compound 71] |
| +++ (≥50 = +++) | 87 (FLDNGPKTI; listed as Homo sapiens) [compound 87] |
| + (≥10% = +) | 42 (TQTAVITRI; listed as Homo sapiens) [compound 42] |
| ++ (≥20% = ++) | 51 (KLFGHLTSA; listed as Homo sapiens) [compound 51] |
| +++ (≥50 = +++) | 35 (LLRFSQDNA; listed as Homo sapiens) [compound 35] |
| ++ (≥20% = ++) | 60 (VVMEELLKV; listed as Homo sapiens) [compound 60] |
| ++ (≥20% = ++) | 31 (VLPKLYVKL; listed as Homo sapiens) [compound 31] |
| +++ (≥50 = +++) | 66 (LLDEKVQSV; listed as Homo sapiens) [compound 66] |
| +++ (≥50 = +++) | 76 (KVADYIPQL; listed as Homo sapiens) [compound 76] |
| ++ (≥20% = ++) | 7 (SIFEGLLSGV; listed as Homo sapiens) [compound 7] |
| ++ (≥20% = ++) | 78 (KVANIIAEV; listed as Homo sapiens) [compound 78] |
| +++ (≥50 = +++) | 11 (ALWLPTDSATV; listed as Homo sapiens) [compound 11] |
| +++ (≥50 = +++) | 38 (IAAIRGFLV; listed as Homo sapiens) [compound 38] |
| +++ (≥50 = +++) | 49 (GLMKDIVGA; listed as Homo sapiens) [compound 49] |
| ++ (≥20% = ++) | 89 (SLADSLYNL; listed as Homo sapiens) [compound 89] |

| Peptide exchange | Substance |
| --- | --- |
| ++ (≥20% = ++) | 40 (GLAFSLYQA; listed as Homo sapiens) [compound 40] |
| +++ (≥50 = +++) | 59 (SLLDTLREV; listed as Homo sapiens) [compound 59] |
| + (≥10% = +) | 15 (LLANGVYAA; listed as Homo sapiens) [compound 15] |
| +++ (≥50 = +++) | 84 (SLAESLDQA; listed as Homo sapiens) [compound 84] |
| +++ (≥50 = +++) | 33 (GLDVTSLRPFDL; listed as Homo sapiens) [compound 33] |
| ++ (≥20% = ++) | 41 (GLESEELEPEEL; listed as Homo sapiens) [compound 41] |
| ++ (≥20% = ++) | 68 (PAVLQSSGLYSL; listed as Homo sapiens) [compound 68] |
| ++ (≥20% = ++) | 17 (MISRTPEV; listed as Homo sapiens) [compound 17] |
| ++ (≥20% = ++) | 48 (SMHQMLDQTL; listed as Homo sapiens) [compound 48] |
| +++ (≥50 = +++) | 74 (ILASLATSV; listed as Homo sapiens) [compound 74] |
| +++ (≥50 = +++) | 8 (ALLDGGSEAYWRV; listed as Homo sapiens) [compound 8] |
| ++ (≥20% = ++) | 92 (SILRHVAEV; listed as Homo sapiens) [compound 92] |
| ++ (≥20% = ++) | 79 (GQDVGRYQV; listed as Homo sapiens) [compound 79] |
| +++ (≥50 = +++) | 73 (KITEAIQYV; listed as Homo sapiens) [compound 73] |
| ++++ (≥75% = ++++) | 64 (GLTDVIRDV; listed as Homo sapiens) [compound 64] |
| ++ (≥20% = ++) | 28 (SLDGFTIQV; listed as Homo sapiens) [compound 28] |
| +++ (≥50 = +++) | 65 (YVVGGFLYQRL; listed as Homo sapiens) [compound 65] |
| +++ (≥50 = +++) | 61 (TQTTHELTI; listed as Homo sapiens) [compound 61] |
| +++ (≥50 = +++) | 81 (AVLPHVDQV; listed as Homo sapiens) [compound 81] |
